Here are results for 1 molecule from PMC10193008, “Discovery of an inhibitor of DNA-driven inflammation that preferentially targets the AIM2 inflammasome”.

In the data set the target is T1, AIM2-GST (rhAIM2) (human, UniProt O14862 1-343).
T1 sequence: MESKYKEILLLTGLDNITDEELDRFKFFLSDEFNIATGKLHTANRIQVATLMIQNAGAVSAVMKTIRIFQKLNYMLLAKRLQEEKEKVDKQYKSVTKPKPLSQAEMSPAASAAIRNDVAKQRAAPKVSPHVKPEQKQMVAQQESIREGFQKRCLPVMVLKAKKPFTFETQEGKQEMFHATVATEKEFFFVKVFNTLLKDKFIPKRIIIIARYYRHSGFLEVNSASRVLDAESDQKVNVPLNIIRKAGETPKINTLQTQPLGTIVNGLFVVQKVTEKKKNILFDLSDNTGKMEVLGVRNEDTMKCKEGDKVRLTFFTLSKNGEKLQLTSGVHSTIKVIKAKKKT
The data set can be described thus: EMSA; no inhibitor. Conditions: protein: commercial; tags: GST; label: none (SYBR Safe stain after electrophoresis); blunt.

B1: VACV72 dsDNA (dsDNA)
DNA 1: ATCCATCAGAAAGAGGTTTAATATTTTTGTGAGACCATCGAAGAGAGAAAGAGATAAAACTTTTTTACGACT
DNA 2: AGTCGTAAAAAAGTTTTATCTCTTTCTCTCTTCGATGGTCTCACAAAAATATTAAACCTCTTTCTGATGGAT
As for B1, the binding result was “binds”.
